Data: US20200247889A1 (published 2020)

T1: mouse TREM1 (mouse, UniProt Q9JKE2 21-230)
T1 chain: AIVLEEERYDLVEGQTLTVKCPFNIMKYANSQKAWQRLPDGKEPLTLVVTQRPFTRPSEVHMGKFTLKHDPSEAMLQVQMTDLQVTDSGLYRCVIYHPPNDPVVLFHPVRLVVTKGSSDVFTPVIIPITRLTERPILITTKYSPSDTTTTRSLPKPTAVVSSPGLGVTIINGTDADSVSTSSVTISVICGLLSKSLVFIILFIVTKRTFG

T2: cynomolgus TREM1 (cynomolgus, UniProt A0A2K5VHG8 21-233)
T2 chain: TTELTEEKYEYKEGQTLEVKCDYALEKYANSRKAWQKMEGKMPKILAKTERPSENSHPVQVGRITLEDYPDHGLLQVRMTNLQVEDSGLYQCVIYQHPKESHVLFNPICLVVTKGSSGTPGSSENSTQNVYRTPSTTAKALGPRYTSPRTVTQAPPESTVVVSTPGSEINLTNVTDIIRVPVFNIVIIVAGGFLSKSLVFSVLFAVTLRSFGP


Tests used:
mouse TREM1 [1] = target: T1, mouse TREM1; experiment: cell binding; BALB/c splenocyte neutrophils
mouse TREM1 [2] = target: T1, mouse TREM1; experiment: cell binding
mouse TREM1 [3] = target: T1, mouse TREM1; experiment: SPR (Biacore); avid
9067s = experiment: SPR
cynomolgus TREM1 [4] = target: T2, cynomolgus TREM1; experiment: flow cytometry cell binding
cynomolgus TREM1 [5] = target: T2, cynomolgus TREM1; experiment: cell binding

Binder	EC50 (mouse TREM1 [1]) [pM]	EC50 (mouse TREM1 [2]) [pM]	Kd (mouse TREM1 [3]) [pM]	Kd (9067s) [pM]	EC50 (cynomolgus TREM1 [4]) [pM]	EC50 (cynomolgus TREM1 [5]) [pM]
Pi-9772 (antibody, V domains shown) VH: EVQLVESGGGLVQPGGSLRLSCAASGFDLSYSSMHWVRQAPGKGLEWVAYISPYSGYTSYADSVKGRFTISADTSKNTAYLQMNSLRAEDTAVYYCARHGSWSYGFSSGFDYWGQGTLVTVSS VL: DIQMTQSPSSLSASVGDRVTITCRASQSVSSAVAWYQQKPGKAPKLLIYSASSLYSGVPSRFSGSRSGTDFTLTISSLQPEDFATYYCQQYAYYYPITFGQGTKVEIKR	6830	2850	150	–	–	–
afucosylated Pi-9772 (antibody, V domains shown, afucosylated Fc glycan) VH: EVQLVESGGGLVQPGGSLRLSCAASGFDLSYSSMHWVRQAPGKGLEWVAYISPYSGYTSYADSVKGRFTISADTSKNTAYLQMNSLRAEDTAVYYCARHGSWSYGFSSGFDYWGQGTLVTVSS VL: DIQMTQSPSSLSASVGDRVTITCRASQSVSSAVAWYQQKPGKAPKLLIYSASSLYSGVPSRFSGSRSGTDFTLTISSLQPEDFATYYCQQYAYYYPITFGQGTKVEIKR	–	6350	710	–	–	–
Protein binding (receptor) AIVLEEERYDLVEGQTLTVKCPFNIMKYANSQKAWQRLPDGKEPLTLVVTQRPFTRPSEVHMGKFTLKHDPSEAMLQVQMTDLQVTDSGLYRCVIYHPPNDPVVLFHPVRLVVTKGSSDVFTPVIIPITRLTERPILITTKYSPSDTTTTRSLPKPTAVVSSPGLGVTIINGTDADSVSTSSVTISVICGLLSKSLVFIILFIVTKRTFG	–	–	–	870	–	–
mAb0170 (antibody, V domains shown) VH: EVQLVESGGGLVQPGGSLKLSCAASGFTFSTYAMHWVRQASGKGLEWVGRIRTKSSNYATYYAASVKGRFTISRDDSKNTAYLQMNSLKTEDTAVYYCTRDMGIRRQFAYWGQGTLVTVSS VL: DIVLTQSPDSLAVSLGERATINCRASESVDTFDYSFLHWYQQKPGQPPKLLIYRASNLESGVPDRFSGSGSGTDFTLTISSLQAEDVAVYYCQQSNEDPYTFGQGTKLEIK	–	–	–	–	130	130
afucosylated Pi-4928 (antibody, V domains shown, afucosylated Fc glycan) VH: QVQLKESGPGLVQPSQTLSLTCTVSGFSITSSNVYWFRQPPGKGLEWMGNIWGDGSTDYNSSLKSRLTLSRDTSKNQVFLKINSLQSEDTATYFCTRSWEYYFDHWGQGVVVTVSS VL: DIVLTQSPALAVSPGQRATLSCRASQSVTLSNVNLMNWYQQKPGQQPKLLIYHASNLASGIPTRFSGSGSGTDFTLTIDPVQADDIAAYYCQQSGESPRTFGGGTKVELKR	–	2320	110	–	–	–
Pi-4928 (antibody, V domains shown) VH: QVQLKESGPGLVQPSQTLSLTCTVSGFSITSSNVYWFRQPPGKGLEWMGNIWGDGSTDYNSSLKSRLTLSRDTSKNQVFLKINSLQSEDTATYFCTRSWEYYFDHWGQGVVVTVSS VL: DIVLTQSPALAVSPGQRATLSCRASQSVTLSNVNLMNWYQQKPGQQPKLLIYHASNLASGIPTRFSGSGSGTDFTLTIDPVQADDIAAYYCQQSGESPRTFGGGTKVELKR	1360	1410	110	–	–	–
Pi-9067L (antibody, V domains shown) VH: EVQLVESGGGLVQPGGSLRLSCAASGFDIYSYSIHWVRQAPGKGLEWVAYIYPSYGYTSYADSVKGRFTISADTSKNTAYLQMNSLRAEDTAVYYCARGAVAALDYWGQGTLVTVSS VL: DIQMTQSPSSLSASVGDRVTITCRASQSVSSAVAWYQQKPGKAPKLLIYSASSLYSGVPSRFSGSRSGTDFTLTISSLQPEDFATYYCQQYGVSGYSLITFGQGTKVEIKR	980	1850	90	–	–	–
afucosylated Pi-9067L (antibody, V domains shown, afucosylated Fc glycan) VH: EVQLVESGGGLVQPGGSLRLSCAASGFDIYSYSIHWVRQAPGKGLEWVAYIYPSYGYTSYADSVKGRFTISADTSKNTAYLQMNSLRAEDTAVYYCARGAVAALDYWGQGTLVTVSS VL: DIQMTQSPSSLSASVGDRVTITCRASQSVSSAVAWYQQKPGKAPKLLIYSASSLYSGVPSRFSGSRSGTDFTLTISSLQPEDFATYYCQQYGVSGYSLITFGQGTKVEIKR	–	2900	150	–	–	–
